This note sets out measurements from paper PMC9505826, “A Peptide Inhibitor of the Human Cytomegalovirus Core Nuclear Egress Complex” (Pharmaceuticals, 2022).

The target of the assay is recombinant HCMV pUL50 (His-tagged) (human cytomegalovirus (HCMV)) (UniProt P16791). The experiment in a line: ELISA; competition: pUL53 (1 µg/mL) coated on Immulon plates; peptide in serial dilutions from 10 µM together with His-tagged pUL50 (0.78 µg/mL) for 2.5 h; detection with anti-His-HRP; 0.1 M phosphate buffer pH 7.2, 0.1% BSA, 0.01% Tween 20. For orientation: An ELISA detects its analyte on a solid surface through an enzyme-linked reagent.

The term IC50 denotes the concentration needed to halve the response being measured. Turning to “NLS-CPP (acetylated; pUL53 NLS 18-27 joined to HIV-1 Tat 47-59) (peptide)”, the IC50 is more than 10 µM.
